Data as given in US20250121087A1 (INTOCELL, published 2025).

Legend:
[1] = target: T1, Mouse B7-H3 (Sino biological Inc.) (mouse, UniProt Q8VE98 29-244, limits assumed); experiment: SPR (Biacore 8K), antibody captured on anti-human Fc, antigen as analyte, 1:1 fit
T1 sequence (looked up): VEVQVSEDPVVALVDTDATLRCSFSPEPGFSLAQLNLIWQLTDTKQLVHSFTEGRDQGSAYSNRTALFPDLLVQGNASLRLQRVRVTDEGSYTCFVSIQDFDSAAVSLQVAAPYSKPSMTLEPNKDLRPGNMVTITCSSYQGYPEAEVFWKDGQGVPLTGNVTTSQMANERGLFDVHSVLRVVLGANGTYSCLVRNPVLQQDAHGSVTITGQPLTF
Protocol: (§1) A Biacore 8K (GE Life science) instrument was used to measure the binding kinetics about several B7-H3 variants (analyte) binding to various mAbs (ligands). Antibodies were captured onto the immobilized anti-human Fc antibody (GE Life science). […] For binding kinetic measurements, the HBS-EP+ was used for running buffer (10 mM Hepes, pH7.4, 150 mM NaCl, 3 mM EDTA, 0.05% polysorbate20). […] After capturing ligand, various B7-H3 antigens were analyzed for 120 s and the dissociation was monitored for 600 s at a flow rate of 30 ul/min. […] For the kinetic analysis, 5 points of 2-fold diluted analytes were flown over the captured ligand ranging from 20 nM of human 4Ig B7-H3 (Y-Biologics Inc.), 320 nM of human 2Ig B7-H3 (Acrobiosystems), 40 nM of cynomolgus monkey B7-H3 (Sino biological Inc.), and 160 nM of mouse B7-H3 (Sino biological Inc.). Kinetic information was calculated by fitting data to a 1:1 binding model using Biacore Insight Evaluation software (GE Life Science) to determine ka (association constant), kd (dissociation constant), and KD (equilibrium dissociation constant).

[2] = target: T2, Human 4IgB7-H3 (Y-Biologics Inc.) (human, UniProt Q5ZPR3 29-466, limits assumed); experiment: as above
T2 construct: 4Ig isoform
T2 sequence (looked up): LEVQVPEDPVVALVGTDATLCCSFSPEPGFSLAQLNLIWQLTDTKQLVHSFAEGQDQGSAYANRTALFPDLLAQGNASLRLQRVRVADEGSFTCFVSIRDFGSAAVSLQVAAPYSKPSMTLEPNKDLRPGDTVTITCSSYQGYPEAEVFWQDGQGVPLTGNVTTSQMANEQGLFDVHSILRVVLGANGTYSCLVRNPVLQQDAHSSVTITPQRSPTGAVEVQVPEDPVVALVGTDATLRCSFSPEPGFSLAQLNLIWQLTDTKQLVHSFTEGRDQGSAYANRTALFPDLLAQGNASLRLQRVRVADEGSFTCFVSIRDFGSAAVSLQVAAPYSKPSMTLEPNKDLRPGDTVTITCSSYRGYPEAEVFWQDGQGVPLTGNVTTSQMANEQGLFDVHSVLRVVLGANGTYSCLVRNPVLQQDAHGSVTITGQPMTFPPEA
Protocol: as §1

[3] = target: T3, Cyno B7-H3 (Sino biological Inc.) (cynomolgus monkey); experiment: as above
T3 construct: also called cynomolgus monkey B7-H3
Protocol: as §1

[4] = target: T4, Human 2IgB7-H3 (Acrobiosystems) (human, UniProt Q5ZPR3-2 29-245, limits assumed); experiment: as above
T4 construct: 2Ig isoform (the short splice form of the same UniProt entry)
T4 sequence (looked up): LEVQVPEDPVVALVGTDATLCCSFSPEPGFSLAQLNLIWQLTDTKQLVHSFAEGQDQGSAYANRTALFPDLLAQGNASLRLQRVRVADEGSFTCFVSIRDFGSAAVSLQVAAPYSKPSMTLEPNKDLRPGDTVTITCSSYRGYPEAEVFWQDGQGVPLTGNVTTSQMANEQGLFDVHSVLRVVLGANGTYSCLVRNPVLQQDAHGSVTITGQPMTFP
Protocol: as §1

[5] = target: T5, human B7-H3 (Y-Biologics Inc.) (human, UniProt Q5ZPR3 29-466); experiment: BLI (Octet QKe), antibody on AHC biosensor, human B7-H3 as analyte, 1:1 global fit
T5 chain: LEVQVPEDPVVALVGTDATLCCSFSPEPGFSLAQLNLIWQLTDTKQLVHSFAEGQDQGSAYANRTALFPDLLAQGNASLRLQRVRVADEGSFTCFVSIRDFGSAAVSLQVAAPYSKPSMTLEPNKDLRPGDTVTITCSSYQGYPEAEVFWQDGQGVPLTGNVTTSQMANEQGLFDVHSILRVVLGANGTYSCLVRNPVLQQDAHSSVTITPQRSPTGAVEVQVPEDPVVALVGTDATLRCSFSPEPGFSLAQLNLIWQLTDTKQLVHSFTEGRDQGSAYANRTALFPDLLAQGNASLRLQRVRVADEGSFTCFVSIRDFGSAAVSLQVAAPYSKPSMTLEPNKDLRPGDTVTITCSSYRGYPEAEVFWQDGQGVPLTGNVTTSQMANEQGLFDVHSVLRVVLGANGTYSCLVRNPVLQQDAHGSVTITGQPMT

Row | Binder | Kd [1] | koff [1] | kon [1] | Kd [2] | koff [2] | kon [2] | Kd [3] | koff [3] | kon [3] | Kd [4] | koff [4] | kon [4] | Kd [5] | koff [5] | kon [5]
1 | AB2 (SA2107, CD276-040F10) (antibody, human IgG1, V domains shown, Whole human IgG) VH: QVQLVESGAEVKKPGASVKLSCKASGYTFSSYWMHWVRQAPGQRLEWMGEINPGNGHTNYNEKFKSRVTITVDKSASTAYMELSSLRSEDTAVYYCVADPRRPKVPTALFVYWGQGTLVTVSS VL: DIQMTQSPSSVSASVGDRVTISCRASQGIGTWLAWYQQKPGKAPRLLIYAASSLDSGVPSRFSASGSGTDFTLTISSLQPEDFATYYCQQAINFPITFGQGTRLEIK | 47.3 nM | 0.0193 s⁻¹ | 408000 M⁻¹ s⁻¹ | 0.446 nM | 0.000199 s⁻¹ | 446000 M⁻¹ s⁻¹ | 0.919 nM | 0.000442 s⁻¹ | 481000 M⁻¹ s⁻¹ | 25 nM | 0.00515 s⁻¹ | 206000 M⁻¹ s⁻¹ | 0.05 nM | 4e-05 s⁻¹ | 700000 M⁻¹ s⁻¹
2 | AB2.1 (SA2107.01, CD276-040F10_IgG1_A1C) (antibody, V domains shown, Tested unconjugated; also called SA2107 A121C) VH: QVQLVESGAEVKKPGASVKLSCKASGYTFSSYWMHWVRQAPGQRLEWMGEINPGNGHTNYNEKFKSRVTITVDKSASTAYMELSSLRSEDTAVYYCVADPRRPKVPTALFVYWGQGTLVTVSS VL: DIQMTQSPSSVSASVGDRVTISCRASQGIGTWLAWYQQKPGKAPRLLIYAASSLDSGVPSRFSASGSGTDFTLTISSLQPEDFATYYCQQAINFPITFGQGTRLEIKR | 42.4 nM | 0.0178 s⁻¹ | 420000 M⁻¹ s⁻¹ | 1.06 nM | 0.00047 s⁻¹ | 442000 M⁻¹ s⁻¹ | 1.05 nM | 0.000504 s⁻¹ | 480000 M⁻¹ s⁻¹ | 21.6 nM | 0.00469 s⁻¹ | 217000 M⁻¹ s⁻¹ | 0.05 nM | 2e-05 s⁻¹ | 500000 M⁻¹ s⁻¹
3 | AB5 (SA2563, CD276-039C05_LS_002A11) (antibody, human IgG1, V domains shown, Whole human IgG; also called CD276-39C05_LS_002A11) VH: QVQLVESGAEVKKPGSSVKVSCKASGGTFSSYAISWVRQAPGQGLEWMGRIIPILGIANYAQKFQGRVTITADKSTSTAYMELSSLRSEDTAVYYCANGGDSSSWYTFDYWGQGTLITVSS VL: DIQMTQSPSTLSASVGDRLTITCRASQNINSWLAWYQQKPGKAPKLLIYKASYLQTGVPSRFSGSGSGTEFTLTITSLQPDDFASYYCQQYDSNPLTFGGGTKVEIK | – | – | – | – | – | – | – | – | – | – | – | – | 0.1 nM | 0.0002 s⁻¹ | 1e+06 M⁻¹ s⁻¹
4 | AB6 (SA2566, CD276-039C05_LS_002B07) (antibody, human IgG1, V domains shown, Whole human IgG; also called CD276-39C05-LS-002B07) VH: QVQLVESGAEVKKPGSSVKVSCKASGGTFSSYAISWVRQAPGQGLEWMGRIIPILGIANYAQKFQGRVTITADKSTSTAYMELSSLRSEDTAVYYCANGGDSSSWYTFDYWGQGTLITVSS VL: DIQMTQSPSSLSASVGDRVTITCRASQGISSYLAWYQQKPGKAPKLLIYAASTLQSGVPSRFSGSGSGTDFTLTISSLQPEDFATYYCQQYYSFPLTFGGGTKVEIK | – | – | – | – | – | – | – | – | – | – | – | – | 0.2 nM | 0.0006 s⁻¹ | 3e+06 M⁻¹ s⁻¹
5 | AB8 (SA2579, CD276-039C05_LS_002H07) (antibody, human IgG1, V domains shown, Whole human IgG; also called CD276-39C05-LS-002H07) VH: QVQLVESGAEVKKPGSSVKVSCKASGGTFSSYAISWVRQAPGQGLEWMGRIIPILGIANYAQKFQGRVTITADKSTSTAYMELSSLRSEDTAVYYCANGGDSSSWYTFDYWGQGTLITVSS VL: DIQMTQSPSTLSASVGDRVTITCRASQSIDNWLAWYQQKPGKAPKLLIYKASSLQSGVPSRFSGSGSGTEFTLTISSLQPDDFASYYCQQYDSNPLTFGGGTKVEIK | – | – | – | – | – | – | – | – | – | – | – | – | 0.3 nM | 0.0003 s⁻¹ | 900000 M⁻¹ s⁻¹

Next, values leading:

Row | Kd [1] | koff [1] | kon [1] | Kd [2] | koff [2] | kon [2] | Kd [3] | koff [3] | kon [3] | Kd [4] | koff [4] | kon [4] | Kd [5] | koff [5] | kon [5] | Binder
6 | – | – | – | – | – | – | – | – | – | – | – | – | 0.04 nM | 3e-05 s⁻¹ | 600000 M⁻¹ s⁻¹ | AB3 (SA2103, CD276-039C05) (antibody, human IgG1, V domains shown, Whole human IgG) VH: QVQLVESGAEVKKPGSSVKVSCKASGGTFSSYAISWVRQAPGQGLEWMGRIIPILGIANYAQKFQGRVTITADKSTSTAYMELSSLRSEDTAVYYCANGGDSSSWYTFDYWGQGTLITVSS VL: DIQMTQSPSTLSASVGDKLTLTCRASQSISRWLAWYQQKPGKAPKLLIYKASYLQTGVPSRFSGSGTGTEFTLTISSLQPDDFATYYCQQYNTFPLTFAGGTKVEIK
7 | – | – | – | – | – | – | – | – | – | – | – | – | 0.06 nM | 7e-05 s⁻¹ | 1e+06 M⁻¹ s⁻¹ | AB4 (SA2545, CD276-039C05_LS_001E10) (antibody, human IgG1, V domains shown, Whole human IgG; also called CD276-39C05-LS-001E10) VH: QVQLVESGAEVKKPGSSVKVSCKASGGTFSSYAISWVRQAPGQGLEWMGRIIPILGIANYAQKFQGRVTITADKSTSTAYMELSSLRSEDTAVYYCANGGDSSSWYTFDYWGQGTLITVSS VL: DIQMTQSPSTLSASVGDRVNITCRASQTINSWLAWYQQKPGKAPKLLIYKASYLQTGVPSRFSGSGAGTEFTLTISSLQPDDFATYYCQQYNSYSLTFGGGTKVEIK
8 | – | – | – | – | – | – | – | – | – | – | – | – | 0.3 nM | 0.0005 s⁻¹ | 2e+06 M⁻¹ s⁻¹ | AB7 (SA2571, CD276-039C05_LS_002D03) (antibody, human IgG1, V domains shown, Whole human IgG; also called CD276-39C05_LS_002D03) VH: QVQLVESGAEVKKPGSSVKVSCKASGGTFSSYAISWVRQAPGQGLEWMGRIIPILGIANYAQKFQGRVTITADKSTSTAYMELSSLRSEDTAVYYCANGGDSSSWYTFDYWGQGTLITVSS VL: DIQMTQSPSTLSASVGDRVTITCRASETISSWLAWYQQKPGKAPKLLIYKASSLQSGVPSRFSGSGSGTEFTLTISSLQPDDFATYYCQQYYSYPITFGQGTRLEIK
9 | 49 nM | 0.0294 s⁻¹ | 600000 M⁻¹ s⁻¹ | 0.518 nM | 0.000617 s⁻¹ | 1.19e+06 M⁻¹ s⁻¹ | 0.278 nM | 0.000242 s⁻¹ | 871000 M⁻¹ s⁻¹ | 208 nM | 0.107 s⁻¹ | 515000 M⁻¹ s⁻¹ | 0.3 nM | 0.0002 s⁻¹ | 500000 M⁻¹ s⁻¹ | AB9 (SC0041, CD276-m8524), control anti-B7-H3 antibody (antibody, human IgG1, V domains shown, Control antibody produced by the applicants; Human IgG1, Kappa-T2S) VH: QVQLQQSGAEVKKPGSSVKVSCKASGGTFSSYAISWVRQAPGQGLEWMGGIIPILGIANYAQKFQGRVTITADESTSTAYMELSSLRSEDTAVYYCARGGSGSYHMDVWGKGTTVTVSS VL: EIVLTQSPATLSLSPGERATLSCRASQSVSSYLAWYQQKPGQAPRLLIYDASNRATGIPARFSGSGSGTDFTLTISSLEPEDFAVYYCQQRSNWPPRITFGQGTRLEIKR
